Patent publication US20250042994A1 (HAINAN SIMCERE ZAIMING PHARMACEUTICAL, published 2025)

T1: murine CD19 protein (murine, UniProt P25918 17-287, limits assumed)
T1 construct: bought protein; also called commercial murine CD19
T1 sequence (looked up): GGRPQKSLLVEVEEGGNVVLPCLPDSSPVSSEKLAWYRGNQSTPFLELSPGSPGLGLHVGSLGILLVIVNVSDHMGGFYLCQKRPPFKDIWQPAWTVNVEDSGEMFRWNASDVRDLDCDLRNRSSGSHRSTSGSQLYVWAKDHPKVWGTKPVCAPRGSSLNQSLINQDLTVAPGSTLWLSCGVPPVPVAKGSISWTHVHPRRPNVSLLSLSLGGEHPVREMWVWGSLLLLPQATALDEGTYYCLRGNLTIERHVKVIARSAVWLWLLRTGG

T2: Human CD19-his protein (human, UniProt P15391 20-291)
T2 construct: bought protein; also called human CD19 protein; recombinant human CD19-His; not shown: His tag
T2 sequence (looked up): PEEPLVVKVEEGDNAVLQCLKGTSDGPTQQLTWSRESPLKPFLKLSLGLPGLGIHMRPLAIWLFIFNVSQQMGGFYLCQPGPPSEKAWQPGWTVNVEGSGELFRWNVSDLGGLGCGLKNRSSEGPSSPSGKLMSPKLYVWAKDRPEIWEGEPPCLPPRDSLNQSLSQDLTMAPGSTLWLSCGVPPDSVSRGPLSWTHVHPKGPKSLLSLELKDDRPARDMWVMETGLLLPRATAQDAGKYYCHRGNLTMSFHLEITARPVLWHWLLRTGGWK

T3: human CD19 exon1-3-his protein (human, UniProt P15391 20-186, limits assumed)
T3 construct: made in HEK293E cells; also called membrane-distal end; not shown: His tag
T3 sequence (looked up): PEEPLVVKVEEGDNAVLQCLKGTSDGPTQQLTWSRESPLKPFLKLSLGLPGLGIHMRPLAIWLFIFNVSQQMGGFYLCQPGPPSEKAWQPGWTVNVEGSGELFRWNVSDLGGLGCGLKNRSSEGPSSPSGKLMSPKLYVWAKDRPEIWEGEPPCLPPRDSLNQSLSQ

B1: F6.12.12 (antibody, human IgG1, V domains shown)
VH: DVQLQESGPGLVKPSQSLSLTCSVTGYSITSGYYWIWIRQFPGNKLEWMGYISYDASNKYKPSLKNRISITRDTSKNQFFLKLNSVTAEDTATYFCAREDLRGYFDVWGTGTSVTVSS
VL: DIVLTQSPASLAVSLGRRATISCRASQSVSTSGFSYMHWYQQKPGQPPNLLIKYASILQSGVPARFSGSGSGTDFILNIHPVEDVDTATYYCQHSWGIPFTFGSGTKLEIK
notes: human-murine chimeric antibody, human IgG1
B2: F3.3.10 (antibody, human IgG1, V domains shown)
VH: DVQLQESGPGLAKLSQSLSLTCSVTGYSITSGYYWNWIRQFPGNKLEWMGHISYDGNNNYNPSLKNRISITRDTSKNQFFLKLNSVTTEDTATYYCARENYSNYYFDYWGQGTTLTVSS
VL: DIVLTQSPASLAVSLGQRATISCRASQSVSKSSYTYIHWYQQKPGQPPKLLIKYASILQSGVPARFSGSGSGTDFTLNFHPVEEEDTATYYCQHSWEIPYTFGGGTKLEIK
notes: as for B1
B3: F3.5.1 (antibody, human IgG1, V domains shown)
VH: QAQLQQSGPELVKPGASVKISCKASGYAFSGSWMNWVQQRPGKGLEWIGRIYPGDGDTYYNGKFKDKAILTADKSSSTAYMQLSSLTSEDSAVYFCAQLRYRYVMDYWGQGTSVTVSS
VL: DIVLTQSPASLAVSLGQRATISCRASESVSIHGSHLMHWYQQKPGQPPRLLIYAASNLESGVPARFSGSGSETDFTLNIHPVEEEDAATYFCQQGIKDPYTFGGGTKLEIK
notes: as for B1
B4: F3.40.14 (antibody, human IgG1, V domains shown)
VH: QAQLQQSGPELVKPGASVKISCKASGYAFSGSWMNWVQQRPGKGLEWIGRIYPGDGDTYYSGKFKDKAILTADTSSSTAYMQLSSLTSEDSAVYFCAQLRSRYVMDYWGQGASVTVSS
VL: DIVLTQSPASLAVSLGQRATISCRASESVSIHGTHLMHWYQQKPGQPPRLLIYAASNLESGVPARFSGSGSETDFTLNIHPVEEEDAATYFCQQGIDDPYTFGGGTKLEIK
notes: as for B1
B5: F3.13.2 (antibody, human IgG1, V domains shown)
VH: DVQLQESGPGLMKPSQSLSLTCSVTGYSITSGYYWNWIRQFPGNKLEWMGYISYDGSNNYNPSLKNRFSITRDTSKNQFFLKLNSVTTEDTATYYCARRKLTGGPYFDYWGQGTTLTVSS
VL: DIVLTQSPASLAVTLGQRATISCRASESVSFHGFHIMHWYQQKPGQPPKLLIYAASHLVSGVPDRFSGSGSETDFTLNIHPVEEEDAAAYFCQQSVEDPWTFGGGTKLEIK
notes: as for B1
B6: F3.81.2 (antibody, human IgG1, V domains shown)
VH: QVQLQQPGAELVMPGASVKLSCKASAYTFTNYWMHWVKQRPGHGLEWIGEIDPSDSYTDYNQNFKAKATLTVDKSSSTAYMQLSSLTSEDSAVYYCARLMGRYFDVWGTGTTVTVSS
VL: DIVMTQSHKFMSTSVGDRVSITCKASQDVSAAVAWYQQKPGQSPKLLINSASYRYTGVPDRFTGSGSGTDFTFTISSVQAEDLAVYYCQQHYSTPLTFGAGTKLELR
notes: as for B1

Tests used:
[1] = biological target: T1, murine CD19 protein; experiment: ELISA, coated murine CD19
Method: (§1) Human CD19-his protein (purchased from ACROBiosystems, catalog number: CD9-H52H2) was diluted with PBS to a final concentration of 4 μg/mL, and then added to a 96-well ELISA plate at 100 μl/well. The plate was sealed with a plastic film and incubated overnight at 4° C., the plate was washed 2 times with PBS the next day, and then a blocking solution [PBS+2% (w/w) BSA] was added for blocking at room temperature for 2 h. The blocking solution was poured off, and 100 nM gradiently diluted CD19 chimeric antibody or control antibody was added at 50 μl/well. After incubation at 37° C. for 2 h, the plate was washed 3 times with PBS. […] TMB substrate was added at 50 μl/well, and incubated at room temperature for 10 min, and then a stop solution (1.0 N HCl) was added at 50 μl/well. The OD450 nm values were read by an ELISA microplate reader (Multimode Plate Reader, EnSight, purchased from Perkin Elmer).
In order to detect the species cross-binding activity of the chimeric antibodies, an ELISA plate was coated with commercial murine CD19 (ACROBiosystems, catalog number: 50510-M08H) and monkey CD19 (ACROBiosystems, catalog number: 90051-C08H), respectively, and the ELISA detection was performed according to the method in example 5.1.

[2] = biological target: T2, Human CD19-his protein; experiment: ELISA, antibody at 0.01 nM
Method: as §1

[3] = biological target: T2, Human CD19-his protein; experiment: ELISA, antibody at 1.00 nM
Method: as §1

[4] = biological target: T3, human CD19 exon1-3-his protein; experiment: ELISA, coated at 2 ug/mL
Method: as §1
CD19 protein contains 4 exons in the extracellular region, in which exons 1-3 are located at the membrane-distal end and exon 4 is located at the membrane-proximal end. […] To identify the distribution of antigen binding epitopes of the chimeric antibodies, human CD19 exon 1-3-His (membrane-distal end) was used to coat at 2 μg/mL according to the ELISA method in example 5.1.

[5] = biological target: T2, Human CD19-his protein; experiment: ELISA, antibody at 0.001 nM
Method: as §1

[6] = biological target: T2, Human CD19-his protein; experiment: ELISA, antibody at 10 nM
Method: as §1

[7] = biological target: T2, Human CD19-his protein; experiment: ELISA, antibody at 100 nM
Method: as §1

[8] = biological target: T2, Human CD19-his protein; experiment: ELISA, antibody at 0.10 nM
Method: as §1

[9] = biological target: T2, Human CD19-his protein; experiment: ELISA, antibody at 0.0001 nM
Method: as §1

Binder | binding result [1] | OD450 [2] | OD450 [3] | binding result [4] | OD450 [5] | OD450 [6] | OD450 [7] | OD450 [8] | OD450 [9]
B1 | no binding | 0.1 | 0.71 | no binding | 0.06 | 1.08 | 1.32 | 0.39 | 0.05
B2 | no binding | 0.05 | 0.21 | no binding | 0.05 | 0.42 | 0.59 | 0.08 | 0.05
B3 | no binding | 0.11 | 1.38 | no binding | 0.06 | 1.75 | 2.01 | 0.5 | 0.05
B4 | no binding | 0.06 | 0.42 | no binding | 0.05 | 1.01 | 1.19 | 0.11 | 0.05
B5 | no binding | 0.05 | 0.18 | no binding | 0.05 | 0.29 | 0.45 | 0.06 | 0.05
B6 | no binding | 0.07 | 0.74 | no binding | 0.05 | 1.05 | 1.4 | 0.24 | 0.05
